Data reported in the supplement of paper PMC11502859.

These substances were tested on HEK293T (assay: median enrichment of reporter reads in eGFP-reduced (low/intermediate) vs eGFP-high sorted cells (eGFP-extension fusion abundance) (ratio); higher = stronger loss of eGFP-fusion protein abundance (more destabilising extension)).
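Note: lentiviral eGFP-IRES-mCherry reporter pool sorted by FACS 96 h post-transduction, gated on mCherry-high cells, Illumina read counts normalized per million, median across four biological replicates.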

Substance	median enrichment
KICQDKGSEDWTCSDIGVLLPSS [MAPK1]	2.3
KIFFSPIFLPASGDTAAVTREASLGGPDAQGESWSGESMSCDTTAGAICSPAFLSVGEGISEFILYPRLAFTKFKSLSMRPRP [PGPEP1]	11.5
KIFLELLAIVTECPPFQSQLKTSAP [HEY2]	4.36
KILNLVCRPSRGIKRLALVVKNKADSQTRSDFCPCSSFDVLSVALFLIASSTCKMLFTFCLG [DAB2]	18.3
KIMRHTV [TBC1D32]	6.86
KISVETYTVSSQLLMVLMSLDLDTGLVPSLVSKCLILRVK [VHL]	5.01
KITF [SNCAIP]	0.77
KIWLFMHCGMCSSFSVFRYKVLYQSVIYKVYQHKCW [MLH1]	5.38
KKCEECGKSFS [ZNF676]	0.361
KKEKKQAILDENANGKIHITSYLL [PRDM4]	6.45
KKK [Lys03]	0.373
KKKEKKAKKKK [IQCA1]	0.903
KKKK [Lys04]	0.575
KKKKK [Lys05]	0.46
KKKKKK [Lys06]	1.5
KKKKKKK [Lys07]	0.751
KKKKKKKK [Lys08]	1.65
KKKKKKKKK [Lys09]	3.65
KKKKKKKKKK [Lys10]	1.08
KKKKKKRRKKLL [CCNT1]	0.26
KKKKKQQVMELHILVTQWTIIGSHWKSGKNPWRLSFSDILPNALLSRIFVSFCLIFWGVFVVVGLFFVFFF [PPP1R12A]	4.71
KKKLSHREKNI [OGA]	0.598

Substance	median enrichment
KKLRS [CRYGN]	0.509
KKNQNGLR [ADGRB3]	0.618
KKNVEAIGLLGG [Degron KLHDC2]	5.08
KKPPAQLETC [METTL16]	0.455
KKSSINVLSIGKYT [GRIN2A]	1.77
KKTSSR [LGALS2]	0.594
KKVGRARPCQRG [Degron KLHDC3]	6.66
KKVGTMRGVGYP [Degron APPBP2]	4.39
KLDLII [OR4S2]	1.99
KLICKIRNWTHIALFECEVR [RNF182]	12.7
KLQC [OR4C6]	0.547
KLSNH [WDR27]	0.453
KMDPCEIYHSLVSPSFLSFLNSTFWRDFPK [OR9Q2]	3.34
KMF [EFCAB2]	0.649
KNAPSDLASKKSCSVPCVLSFKGIFRINSDLEDSSVLQRLAFIFIVIMEMLSFILSYIRKKGVMQLISISLGNALVLFSSFLV [CREB5]	15.5
KNAQLL [ROR1]	0.376
KNF [PLXDC2]	0.62
KNQGCFEGKGSLSYALLYHQDYILKRKSSM [GPR65]	11.5
KPERSQDPSRQHQLTDALVVPPSSPDCARSAVPSSGHLSSLWVPPHPSPC [RBP5]	5.79
KPGNPYSFSNTGSFI [ADAM30]	0.59
KPKEVPGTVSDLERSQKENNIIK [CELA2A]	0
KPSEFSL [CD163]	0.535

Substance	median enrichment
KPVLGPSVKYP [GNPDA1]	0.312
KQEWQSKLKL [UHRF1BP1L]	0.342
KQGRWERDCLLPLLSSSCLEVEAV [GRM6]	6.27
KQIKLDEIYNYLIAQ [MDH1B]	18.9
KQP [PSG11]	0.269
KQQPV [DPPA2]	0.433
KQRRWTFCSNVYMYRIVHTSNSEDLYL [SLC10A7]	6.06
KQWQQLGLETSRWCWDHLSLLLLASHSL [PACRG]	7.92
KRASTSEWPHLCPRC [NUMA1]	0.399
KRGCGSQGGLQGTGMSGGHQAQRKRKQREFTGPPEKSQSDVCRHLPIPASLARALLGPEQRRTCPTHTAIYSSRHRAPLPYSW [CRHR2]	4.02
KRGTGGRGRGVLHEMLMLSVISGESV [FAM98C]	7.54
KRKLKNGCLELVLQLL [REG1B]	6.65
KRL [CYP17A1]	0.493
KRQK [CCR2]	0.621
KRRIYVLFKQEKVTLPMLSPLHNI [CDH10]	4.44
KRTQPPSAQREATSQPRGGRIRKQSHS [CCK]	0
KRYPLNIFVEVSYLYQRLGLPI [C7orf25]	15.9
KSFPLTLLQIGL [PTHLH]	19.8
KSIIILQHLRVWQLFVWAFAHAMPSLPSPTPTRGDS [SPATA12]	8.97
KSTSSHETE [UNC5D]	1.07
